We go through 2 substances from patent US6090388.

The target of experiment [1] is human CD4 on the surface of CD4-expressing T cells (human).
The target is the same in experiment [2]. This is another data set of the same source.
Experiment [3] shares this target. Nature of the experiment: IFA on MT2 T cells.
The target is the same in experiment [4]. Nature of the experiment: B4-biotin + FITC-avidin on MT2 T cells after medium alone.
In experiment [5] the target is gp120 of HIV-1 primary isolate TH036 (clade E) (HIV-1).
The target in experiment [6] is gp120 of HIV-1 primary isolate UG029 (clade A) (HIV-1).
The target of experiment [7] is gp120 of HIV-1 primary isolate UG266 (clade D) (HIV-1).
Experiment [8] has as its target gp120 of HIV-1 primary isolate VL 135 (clade B) (HIV-1).
Experiment [9] deals with gp120 of HIV-1 primary isolate ZIM 748 (clade C) (HIV-1).

Read-outs that look alike come from different tables or passages of the source.

For the substance monoclonal antibody B4, the % Pos cells in experiment [1] was 0%. Besides, in experiment [2], the 90% neutralization, MT-2 microplaque assay, HIV-1 DH12 (clade B) was determined as 2.1 µg/mL; the 90% neutralization, MT-2 microplaque assay, HIV-1 TH036 (clade E) amounted to 3.32 µg/mL; the 90% neutralization, MT-2 microplaque assay, HIV-1 UG266 (clade D) was found to be 25.6 µg/mL; the 90% neutralization, MT-2 microplaque assay, HIV-1 UGO29 (clade A) worked out at 6.76 µg/mL. Moreover, in experiment [2], the 90% neutralization, MT-2 microplaque assay, HIV-1 VL 135 (clade B) was determined as 1.54 µg/mL and the 90% neutralization, MT-2 microplaque assay, HIV-1 ZIM 748 (clade C) worked out at 2.82 µg/mL. The substance further displayed a % Pos cells in experiment [3] of over 95%. The % Pos cells in experiment [4] is over 95%.

With “recombinant human monoclonal antibody IgG1 b12”, the 90% neutralization, MT-2 microplaque assay, HIV-1 TH036 in [5] is over 50 µg/mL. The substance further registered a 90% neutralization, MT-2 microplaque assay, HIV-1 UGO29 in experiment [6] of 38.5 µg/mL. In addition, the 90% neutralization, MT-2 microplaque assay, HIV-1 UG266 in [7] is over 50 µg/mL. The substance further showed a 90% neutralization, MT-2 microplaque assay, HIV-1 VL 135 in experiment [8] of 41.7 µg/mL. The same substance registered a 90% neutralization, MT-2 microplaque assay, HIV-1 ZIM 748 in [9] of over 50 µg/mL.
